Experimental data taken from patent publication US20140322218A1 (Amgen, published 2014).
Changes are numbered by the printed parent chain. Numbers in names are those of the source. Blank lines part the entries; values can stand above or below the binder they belong to.

Tests used:
[1] = target: T1, ckCDH19(1-43)::FLAG::ckCDH19(44-141)::huCDH19(142-249)::ckCDH19(250-776), on 293T cells (human/chicken chimera); experiment: FACS, transfected 293T;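 also: antibody binding to chimera-expressing cells with 2 mM CaCl2 present, cell-bound Alexa647-labelled antibody read by flow cytometry, mock-transfected cells serving as control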
T1 construct: Entry holds leader (1-43), Flag tag and CDH19 part; leader left out; also called Hu EC2 (chicken backbone)
T1 chain: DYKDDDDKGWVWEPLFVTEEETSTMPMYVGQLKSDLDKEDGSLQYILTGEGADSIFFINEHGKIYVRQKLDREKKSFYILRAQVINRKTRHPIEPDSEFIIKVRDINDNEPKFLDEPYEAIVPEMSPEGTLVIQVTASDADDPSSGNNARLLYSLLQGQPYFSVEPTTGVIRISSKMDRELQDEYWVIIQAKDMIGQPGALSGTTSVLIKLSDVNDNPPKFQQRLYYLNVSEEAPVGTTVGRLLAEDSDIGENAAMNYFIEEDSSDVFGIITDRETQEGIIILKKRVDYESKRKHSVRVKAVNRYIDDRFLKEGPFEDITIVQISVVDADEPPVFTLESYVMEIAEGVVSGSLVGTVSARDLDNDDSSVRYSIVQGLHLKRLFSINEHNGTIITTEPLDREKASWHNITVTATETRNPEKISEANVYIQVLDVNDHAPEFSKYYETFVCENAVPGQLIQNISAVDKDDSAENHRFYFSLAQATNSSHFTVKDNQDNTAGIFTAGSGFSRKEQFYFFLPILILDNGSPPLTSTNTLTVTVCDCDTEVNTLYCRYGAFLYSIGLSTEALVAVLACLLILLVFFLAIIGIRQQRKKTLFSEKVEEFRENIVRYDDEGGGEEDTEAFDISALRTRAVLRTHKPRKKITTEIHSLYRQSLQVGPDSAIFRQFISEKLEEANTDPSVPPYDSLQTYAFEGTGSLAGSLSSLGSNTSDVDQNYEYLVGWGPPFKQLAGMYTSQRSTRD
Procedure: (§1) The following binding assay was completed in presence of 2 mM CaCl2. […] Cells were then washed one time and the amount of cell associated Alexa647-labelled Ab was quantitated by flow cytometry. The experiments included mock transfected controls.

[2] = target: T2, huCDH19(1-43)::FLAG::hu(44-141)::ckCDH19(142-776), on 293T cells (human/chicken chimera); experiment: FACS, transfected 293T;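 also: antibody binding to chimera-expressing cells with 2 mM CaCl2 present, cell-bound Alexa647-labelled antibody read by flow cytometry, mock-transfected cells serving as control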
T2 construct: Entry holds leader (1-43), Flag tag and CDH19 part; leader left out; also called Hu EC1 (chicken backbone)
Procedure: as §1

[3] = target: T3, ckCDH19(1-43)::FLAG::ckCDH19(44-776), on 293T cells (chicken); experiment: FACS, transfected 293T;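 also: antibody binding to chimera-expressing cells with 2 mM CaCl2 present, cell-bound Alexa647-labelled antibody read by flow cytometry, mock-transfected cells serving as control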
T3 construct: Entry holds leader (1-43), Flag tag and CDH19 part; leader left out; also called Ck EC1-5
T3 chain: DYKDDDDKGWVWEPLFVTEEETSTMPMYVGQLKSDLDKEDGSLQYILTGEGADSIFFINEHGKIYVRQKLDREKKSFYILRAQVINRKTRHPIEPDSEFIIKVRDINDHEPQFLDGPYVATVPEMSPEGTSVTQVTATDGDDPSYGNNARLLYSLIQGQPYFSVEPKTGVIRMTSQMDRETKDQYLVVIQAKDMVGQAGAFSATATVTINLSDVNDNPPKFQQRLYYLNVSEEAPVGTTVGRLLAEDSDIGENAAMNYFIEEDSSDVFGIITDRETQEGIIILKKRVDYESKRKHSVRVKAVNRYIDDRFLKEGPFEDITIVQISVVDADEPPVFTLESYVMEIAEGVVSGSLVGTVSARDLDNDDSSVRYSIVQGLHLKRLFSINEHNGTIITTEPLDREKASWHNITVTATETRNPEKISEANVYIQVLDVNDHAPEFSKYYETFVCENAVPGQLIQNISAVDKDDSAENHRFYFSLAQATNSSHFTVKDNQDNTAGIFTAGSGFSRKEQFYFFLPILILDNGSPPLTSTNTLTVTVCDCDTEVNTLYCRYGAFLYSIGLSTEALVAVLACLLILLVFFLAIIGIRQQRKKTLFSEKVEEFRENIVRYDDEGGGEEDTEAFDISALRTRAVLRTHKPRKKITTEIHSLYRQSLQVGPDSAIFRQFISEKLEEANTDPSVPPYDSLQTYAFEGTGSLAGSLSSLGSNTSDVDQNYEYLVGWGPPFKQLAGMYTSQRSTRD
Procedure: as §1

[4] = target: T4, (1-43)::FLAG::ckCDH19(44-468)::huCDH19(464-772), on 293T cells (human/chicken chimera); experiment: FACS, transfected 293T;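 also: antibody binding to chimera-expressing cells with 2 mM CaCl2 present, cell-bound Alexa647-labelled antibody read by flow cytometry, mock-transfected cells serving as control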
T4 construct: Entry holds leader (1-43), Flag tag and CDH19 part; leader left out; also called Hu EC5 (chicken backbone)
T4 chain: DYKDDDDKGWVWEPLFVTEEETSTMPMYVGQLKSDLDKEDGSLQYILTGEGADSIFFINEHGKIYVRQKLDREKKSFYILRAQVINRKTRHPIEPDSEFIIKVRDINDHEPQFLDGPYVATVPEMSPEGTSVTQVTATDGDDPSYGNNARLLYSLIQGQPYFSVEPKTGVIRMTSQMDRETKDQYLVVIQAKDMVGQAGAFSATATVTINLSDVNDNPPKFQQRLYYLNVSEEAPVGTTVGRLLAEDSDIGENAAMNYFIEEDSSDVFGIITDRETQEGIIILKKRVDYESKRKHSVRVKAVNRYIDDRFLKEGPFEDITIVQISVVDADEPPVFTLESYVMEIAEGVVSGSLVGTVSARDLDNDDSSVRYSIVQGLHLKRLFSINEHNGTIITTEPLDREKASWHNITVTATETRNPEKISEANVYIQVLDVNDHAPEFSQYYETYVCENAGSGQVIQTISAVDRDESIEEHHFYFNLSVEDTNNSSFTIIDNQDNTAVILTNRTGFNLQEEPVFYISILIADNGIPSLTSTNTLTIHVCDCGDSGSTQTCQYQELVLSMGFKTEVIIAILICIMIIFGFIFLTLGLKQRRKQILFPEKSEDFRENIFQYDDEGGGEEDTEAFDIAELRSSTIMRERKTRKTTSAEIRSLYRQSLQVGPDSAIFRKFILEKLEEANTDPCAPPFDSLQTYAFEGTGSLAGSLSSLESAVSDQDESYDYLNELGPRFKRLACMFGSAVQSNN
Procedure: as §1

Human Cadherin-19 = target: T5, Human Cadherin-19 (human, UniProt Q9H159 44-772); experiment: FACS, endogenous CDH19 on CHL-1/Colo699
T5 construct: Residues 1-43 are named as the native leader in the construct designations and are left out; also called human CDH19; huCDH19
Procedure: FACS binding assays were performed to evaluate the binding of the anti-Cadherin-19 receptor specific antibodies to endogenous Cadherin-19 receptor expressed on the CHL-1 tumor cell lines.
FACs assays were performed by incubating hybridoma supernatants with 10,000 to 25,000 cells in PBS/2% Fetal bovine serum/2 mM Calcium Chloride at 4° C. for one hour followed by two washes with PBS/2% Fetal bovine serum/2 mM Calcium Chloride. Cells were then treated with florochrome-labeled secondary antibodies at 4° C. followed by one wash. The cells were resuspended in 50 μl of PBS/2% FBS and antibody binding was analyzed using a FACSCalibur™ instrument.

Cyno Cadherin-19 = target: T6, Cyno Cadherin-19 (cynomolgus monkey (Macaca fascicularis), UniProt Q9H159 44-772 (human entry)); experiment: FACS, recombinant cyno CDH19
T6 construct: also called cyno CDH19; cynomologous CDH-19
T6 chain: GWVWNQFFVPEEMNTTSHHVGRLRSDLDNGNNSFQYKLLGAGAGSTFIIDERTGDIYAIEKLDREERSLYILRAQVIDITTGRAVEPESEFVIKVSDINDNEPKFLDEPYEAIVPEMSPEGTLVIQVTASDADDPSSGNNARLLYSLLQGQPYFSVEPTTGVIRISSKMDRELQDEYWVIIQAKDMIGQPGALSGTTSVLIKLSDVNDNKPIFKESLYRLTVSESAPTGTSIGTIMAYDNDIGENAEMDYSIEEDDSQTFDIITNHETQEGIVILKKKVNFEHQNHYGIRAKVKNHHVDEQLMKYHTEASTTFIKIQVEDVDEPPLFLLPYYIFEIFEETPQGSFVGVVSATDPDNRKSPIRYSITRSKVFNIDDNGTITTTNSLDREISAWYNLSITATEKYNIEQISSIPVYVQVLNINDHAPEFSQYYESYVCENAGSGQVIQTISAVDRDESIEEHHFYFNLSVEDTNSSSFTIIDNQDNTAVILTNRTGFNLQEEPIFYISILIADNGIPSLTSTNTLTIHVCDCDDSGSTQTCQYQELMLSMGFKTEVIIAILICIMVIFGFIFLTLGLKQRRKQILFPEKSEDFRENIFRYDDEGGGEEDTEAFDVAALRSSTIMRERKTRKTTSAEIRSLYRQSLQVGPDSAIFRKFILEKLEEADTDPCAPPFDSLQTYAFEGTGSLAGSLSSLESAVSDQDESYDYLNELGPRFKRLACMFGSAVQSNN

[5] = target: T7, huCDH19(44-249)::muCDH19(248-770), Flag-tagged, on 293T cells (human/mouse chimera); experiment: FACS, transfected 293T
T7 construct: also called Hu EC1-2; C137896
Source text: (§2) The experiment included assaying the anti-CDH19 antibodies against mouse Cadherin19 to determine suitability for binning on these human/mouse chimeras.

[6] = target: T8, huCDH19(44-141)::muCDH19(140-770), Flag-tagged, on 293T cells (human/mouse chimera); experiment: FACS, transfected 293T
T8 construct: also called Hu EC1
Source text: as §2

[7] = target: T9, huCDH19(44-772), Flag-tagged, on 293T cells (human, UniProt Q9H159 44-772); experiment: FACS, transfected 293T
T9 construct: Expressed with native leader (1-43) followed by a Flag tag; leader left out; also called Hu EC1-5
Source text: as §2

binding result [1]: no binding (tested: 5 ug/ml)
binding result [2]: binds
binding result [3]: no binding (tested: 5 ug/ml)
binding result [4]: no binding (tested: 5 ug/ml)
B1: hu anti-<huCDH19> 17H8.2 VH::huIgG1z / 17H8.2 VL::huKLC (Ab ID 13874) (antibody, V domains shown)
VH: QVQLQESGPGLVKPSETLSLTCTVSGGSINSYYWSWIRQPPGKGLEWIGYIYYIGSTNYNPSLKSRVTISVDTSKNQFSLKLSSVTAADTALYYCARDSRYRSGWYDAFDIWGQGTMVTVSS
VL: DIVLTQSPGTLSLSPGERATLSCRASQSVAGSYLAWYQQKPGQAPRLLISGASSRATGIPDRFSGSGSGTDFTLTISRLEPEDFAVYYCQQYGKSPITFGQGTRLEMKG
notes: also called 23B6; 28D10

binding result (Human Cadherin-19): binds
binding result (Cyno Cadherin-19): binds
B2: hu anti-<huCDH19> 20D3.1 VH::huIgG1z / 20D3.1 VL::huLLC-C2 (Ab ID 13878) (antibody, V domains shown)
VH: QVQLVQSGAEVKKPGASVKVSCKVSGYTFTSYFIHWVRQAPGQGLEWMGIINPISVSTSYAQKFQGRVTMTRDTSTSTVFMELSSLRSEDTAVYYCARGGIQLWLHFDYWGQGTLVTVSS
VL: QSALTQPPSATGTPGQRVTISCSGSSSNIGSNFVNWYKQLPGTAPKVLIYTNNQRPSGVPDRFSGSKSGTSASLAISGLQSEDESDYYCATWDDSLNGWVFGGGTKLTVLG
notes: also called 16H2; 23E7

binding result [5]: binds
binding result [6]: binds
binding result [7]: binds
B3: hu anti-<huCDH19> 25F8.1 VH::huIgG1z / 25F8.1 (1-235)(K45Q,S102A) VL::huLLC-C2 (Ab ID 14094) (antibody, V domains shown)
VH: B2 VH with V24A, F33Y, I54S, S55G, V56G, S59R
VL: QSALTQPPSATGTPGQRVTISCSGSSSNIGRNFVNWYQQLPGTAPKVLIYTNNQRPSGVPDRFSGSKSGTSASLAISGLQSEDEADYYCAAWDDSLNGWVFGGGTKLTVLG
notes: Engineered variant of 25F8

binding result (Human Cadherin-19): binds
binding result (Cyno Cadherin-19): binds
B4: hu anti-<huCDH19> 22D1.1 VH::huIgG1z / 22D1.1 VL::huLLC-C2 (Ab ID 13879) (antibody, V domains shown)
VH: B2 VH with K19R, F107L
VL: QSALTQPPSATGTPGQRVTISCSGSSSNIGSNFVNWYKQLPGTAPKVLIYTNNQRPSGVPDRFSGSKSGTSASLAISGLQSEDESDYYCATWDDSMNGWVFGGGTKLTVLG

binding result (Human Cadherin-19): binds
binding result (Cyno Cadherin-19): binds
B5: hu anti-<huCDH19> 19B5.1 VH::huIgG1z / 19B5.1 VL::huLLC-C2 (Ab ID 13885) (antibody, V domains shown)
VH: B2 VH with F107L
VL: B4 VL with A10T, S26R

binding result [5]: binds
binding result [6]: binds
binding result [7]: binds
B6: hu anti-<huCDH19> 26D1.1 (1-469)(R27G,G82R) VH::huIgG1z / 26D1.1 (1-235)(H1Q,S7P) VL::huLLC-C2 (Ab ID 14088) (antibody, V domains shown)
VH: QVQLVQSGAEVKKPGASVKVSCKASGYTFTSYYMSWVRQAPGQGLEWMGIIHPSGGDTTYAQKFQGRVTMTRDTSTSTVYMELSSLRSEDTAVYYCARGGIKLWLHFDYWGQGTLVTVSS
VL: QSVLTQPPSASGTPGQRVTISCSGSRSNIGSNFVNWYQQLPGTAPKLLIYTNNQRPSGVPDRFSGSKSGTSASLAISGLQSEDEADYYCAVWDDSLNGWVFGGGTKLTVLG
notes: Engineered variant of 26D1

binding result [7]: binds
B7: hu anti-<huCDH19> 4B10 (1-471)(R17G,D61E,D72E) VH::huIgG1z / 4B10 (1-236)(H45Q,A90T) VL::huKLC (Ab ID 14055) (antibody, V domains shown)
VH: QVQLVESGGGVVQPGGSLRLSCAASGFTFSSYDMHWVRQAPGKGLEWVAVISYEGTNEYYAESVKGRFTISRDTSKNTLYLQMNSLRAEDTAVYYCARERYFDWSFDYWGQGTLVSVSS
VL: EIVLTQSPGTLSLSPGERATLSCRASQSVSNTYLAWYQQRPGQAPRLLIYGASSRATGIPDRFSGSGSGTDFTLTISSLEPEDFAVYYCQQYSNSWTFGQGTKVEIKR
notes: Engineered variant of 4B10

binding result [5]: binds
binding result [6]: binds
binding result [7]: binds
B8: hu anti-<huCDH19> 4A9 VH::huIgG1z / 4A9 (1-239)(F47L) VL::huLLC-C1 (Ab ID 14056) (antibody, V domains shown)
VH: QVQLQESGPGLVKPSETLSLTCTVSGGSISGYYWSWIRQPPGKGLEWFAYFSYSGSTNYNPSLKSRVTLSVDTSKNQFSLKLSSVTAADTAVYYCARNWAFHFDFWGQGTLVTVSS
VL: QSVLTQPPSVSGAPGQRVTISCTGSSSNIGTGYAVHWYQQLPGTAPKLLIYGNNNRPSGVPDRFSGSKSGTSASLAITGLQAEDEADYYCQSYDSRLSGWVFGGGTKLTVLG
notes: Engineered variant of 4A9

binding result (Human Cadherin-19): binds
binding result (Cyno Cadherin-19): binds
B9: hu anti-<huCDH19> 4F7 VH::huIgG1z / 4F7 VL::huLLC-C1 (Ab ID 13591) (antibody, V domains shown)
VH: B8 VH with G31S, Y33S, F48I, A49G, F51I, S52Y, L69I, V71L, F105Y
VL: B8 VL with A34D, Y51H, N54S, R96S, K107R

binding result [5]: binds
binding result [6]: binds
binding result [7]: binds
B10: hu anti-<huCDH19> 4A9 (1-468)(F55I,A56G) VH::huIgG1z / 4A9 (1-239)(F47L) VL::huLLC-C1 (Ab ID 14057) (antibody, V domains shown)
VH: B8 VH with F48I, A49G
VL: B8 VL
notes: Engineered variant of 4A9
